The target in this data set is T1, EcoNrdR (Escherichia coli) (UniProt P0A8D0).
T1 sequence: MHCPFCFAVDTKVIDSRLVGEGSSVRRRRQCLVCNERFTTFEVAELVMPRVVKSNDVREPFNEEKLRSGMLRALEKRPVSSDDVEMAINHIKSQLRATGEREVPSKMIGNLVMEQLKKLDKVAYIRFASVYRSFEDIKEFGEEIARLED
In words: MST. To be noted: temperature not stated. Lmo: 25 mM Bis-Tris propane pH 6.5, 100 mM KCl, 5 mM MgCl2, 5% glycerol, 1 mM DTT, 0.05% Tween 20, one nucleotide 1 mM or two at 0.

The Kd is the equilibrium constant for the complex coming apart. Lower therefore signals a tighter complex. “ACTATTTGCTATATATTGTGTGGTTGAATCTTTTTTCAACTACATCTAGTATCTCTG (double strand) [Eco nrdHIEF wild type]” gave a Kd of 130 nM.
